From US20220112250A1

Target: Rat CaV2.2 channel (α1B splice variant e37a, α2δ1 and β3) expressed in HEK293T cells (rat) (UniProt Q02294)
Test: cell-based or functional assay

UniProt Q02294, sequence (Q02294 other isoform, or with tags, fused parts or gaps mutant, chain 1 of 3): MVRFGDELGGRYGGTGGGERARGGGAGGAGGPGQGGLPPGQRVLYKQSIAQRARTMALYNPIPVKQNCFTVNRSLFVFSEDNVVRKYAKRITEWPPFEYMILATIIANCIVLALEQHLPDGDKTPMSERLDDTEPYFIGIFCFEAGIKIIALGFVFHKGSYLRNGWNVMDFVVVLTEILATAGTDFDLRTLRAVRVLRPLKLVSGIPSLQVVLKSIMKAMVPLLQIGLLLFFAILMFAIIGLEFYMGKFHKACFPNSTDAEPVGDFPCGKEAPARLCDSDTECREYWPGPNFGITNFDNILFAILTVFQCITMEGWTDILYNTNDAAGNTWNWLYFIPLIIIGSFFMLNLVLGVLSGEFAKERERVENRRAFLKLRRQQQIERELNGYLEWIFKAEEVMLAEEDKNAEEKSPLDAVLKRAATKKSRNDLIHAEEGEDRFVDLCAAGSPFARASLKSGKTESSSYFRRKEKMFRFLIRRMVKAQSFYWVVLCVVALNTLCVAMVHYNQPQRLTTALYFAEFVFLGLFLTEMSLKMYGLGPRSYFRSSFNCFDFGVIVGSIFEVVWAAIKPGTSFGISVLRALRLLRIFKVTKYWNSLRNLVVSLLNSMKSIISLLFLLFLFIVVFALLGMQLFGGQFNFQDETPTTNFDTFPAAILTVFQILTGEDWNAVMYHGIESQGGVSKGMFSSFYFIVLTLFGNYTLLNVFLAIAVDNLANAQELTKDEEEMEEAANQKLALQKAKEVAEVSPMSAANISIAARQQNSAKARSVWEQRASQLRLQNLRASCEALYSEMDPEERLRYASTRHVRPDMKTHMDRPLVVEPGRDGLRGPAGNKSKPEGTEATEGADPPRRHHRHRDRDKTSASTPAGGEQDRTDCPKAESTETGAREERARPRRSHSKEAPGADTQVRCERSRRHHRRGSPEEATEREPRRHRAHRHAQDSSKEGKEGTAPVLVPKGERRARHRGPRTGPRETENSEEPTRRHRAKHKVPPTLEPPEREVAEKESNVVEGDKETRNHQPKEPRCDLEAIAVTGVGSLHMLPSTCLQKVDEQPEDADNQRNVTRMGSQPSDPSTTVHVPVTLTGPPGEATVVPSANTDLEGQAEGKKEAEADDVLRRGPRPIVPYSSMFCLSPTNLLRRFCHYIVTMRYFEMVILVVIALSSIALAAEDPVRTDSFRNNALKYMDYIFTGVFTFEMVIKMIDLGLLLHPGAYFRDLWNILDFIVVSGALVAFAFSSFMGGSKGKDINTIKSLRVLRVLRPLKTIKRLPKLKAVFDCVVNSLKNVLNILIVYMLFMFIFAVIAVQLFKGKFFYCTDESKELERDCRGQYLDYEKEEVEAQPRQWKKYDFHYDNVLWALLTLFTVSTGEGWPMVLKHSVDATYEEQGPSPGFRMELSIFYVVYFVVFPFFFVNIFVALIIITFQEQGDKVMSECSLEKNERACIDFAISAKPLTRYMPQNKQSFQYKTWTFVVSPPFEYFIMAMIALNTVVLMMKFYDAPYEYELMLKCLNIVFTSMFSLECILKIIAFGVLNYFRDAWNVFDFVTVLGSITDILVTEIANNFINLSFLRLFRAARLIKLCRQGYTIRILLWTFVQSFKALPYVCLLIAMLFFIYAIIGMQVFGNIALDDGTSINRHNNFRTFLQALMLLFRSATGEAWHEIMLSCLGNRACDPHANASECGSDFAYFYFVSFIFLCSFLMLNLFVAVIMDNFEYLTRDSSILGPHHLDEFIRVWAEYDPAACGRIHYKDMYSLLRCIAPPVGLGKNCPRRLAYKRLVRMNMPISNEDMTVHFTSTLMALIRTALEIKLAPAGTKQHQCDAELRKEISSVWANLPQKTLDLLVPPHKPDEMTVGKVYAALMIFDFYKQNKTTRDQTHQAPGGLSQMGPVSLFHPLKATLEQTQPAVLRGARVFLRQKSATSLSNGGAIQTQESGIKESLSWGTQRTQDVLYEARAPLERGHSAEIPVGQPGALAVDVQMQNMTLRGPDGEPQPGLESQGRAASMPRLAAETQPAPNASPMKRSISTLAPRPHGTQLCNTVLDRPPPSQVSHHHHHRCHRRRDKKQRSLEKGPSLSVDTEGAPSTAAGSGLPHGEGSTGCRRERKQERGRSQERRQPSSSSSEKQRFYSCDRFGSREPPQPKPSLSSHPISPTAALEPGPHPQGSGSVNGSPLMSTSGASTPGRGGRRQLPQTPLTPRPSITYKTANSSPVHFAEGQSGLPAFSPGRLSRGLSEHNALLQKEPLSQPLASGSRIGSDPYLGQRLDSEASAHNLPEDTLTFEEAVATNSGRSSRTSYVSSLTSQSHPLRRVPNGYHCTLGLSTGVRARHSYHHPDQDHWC
UniProt Q02294, sequence (P54290 25-1091, stated change not applied, chain 2 of 3, further chain): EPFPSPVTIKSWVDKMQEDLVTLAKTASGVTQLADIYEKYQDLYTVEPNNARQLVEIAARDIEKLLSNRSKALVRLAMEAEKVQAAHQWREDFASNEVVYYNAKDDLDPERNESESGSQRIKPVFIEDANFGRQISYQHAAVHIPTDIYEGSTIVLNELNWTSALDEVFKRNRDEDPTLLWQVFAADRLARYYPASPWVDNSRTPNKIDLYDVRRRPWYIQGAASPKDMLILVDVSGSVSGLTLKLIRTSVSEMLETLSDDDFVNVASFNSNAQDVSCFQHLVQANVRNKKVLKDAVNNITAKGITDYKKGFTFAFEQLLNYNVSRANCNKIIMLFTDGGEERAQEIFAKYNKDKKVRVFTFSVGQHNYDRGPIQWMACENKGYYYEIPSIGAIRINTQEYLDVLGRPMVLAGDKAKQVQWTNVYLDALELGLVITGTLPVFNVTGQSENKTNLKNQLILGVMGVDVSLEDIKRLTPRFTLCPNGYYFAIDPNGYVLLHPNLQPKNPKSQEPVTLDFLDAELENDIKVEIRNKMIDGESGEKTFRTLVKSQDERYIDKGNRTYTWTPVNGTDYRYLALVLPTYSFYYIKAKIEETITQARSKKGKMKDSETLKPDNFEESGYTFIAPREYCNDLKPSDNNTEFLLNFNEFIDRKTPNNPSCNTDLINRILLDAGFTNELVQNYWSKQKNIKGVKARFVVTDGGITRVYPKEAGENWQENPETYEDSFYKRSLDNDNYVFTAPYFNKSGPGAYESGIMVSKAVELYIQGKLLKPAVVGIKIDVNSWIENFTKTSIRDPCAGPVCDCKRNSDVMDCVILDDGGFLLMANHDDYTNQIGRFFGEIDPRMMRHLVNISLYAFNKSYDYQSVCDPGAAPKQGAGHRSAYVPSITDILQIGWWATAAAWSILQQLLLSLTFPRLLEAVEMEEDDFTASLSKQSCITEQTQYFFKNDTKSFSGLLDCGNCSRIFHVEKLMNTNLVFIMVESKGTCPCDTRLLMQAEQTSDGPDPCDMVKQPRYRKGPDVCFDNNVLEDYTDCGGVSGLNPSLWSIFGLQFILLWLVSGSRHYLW
UniProt Q02294, sequence (P54287 whole entry, stated change not applied, chain 3 of 3, further chain, canonical isoform): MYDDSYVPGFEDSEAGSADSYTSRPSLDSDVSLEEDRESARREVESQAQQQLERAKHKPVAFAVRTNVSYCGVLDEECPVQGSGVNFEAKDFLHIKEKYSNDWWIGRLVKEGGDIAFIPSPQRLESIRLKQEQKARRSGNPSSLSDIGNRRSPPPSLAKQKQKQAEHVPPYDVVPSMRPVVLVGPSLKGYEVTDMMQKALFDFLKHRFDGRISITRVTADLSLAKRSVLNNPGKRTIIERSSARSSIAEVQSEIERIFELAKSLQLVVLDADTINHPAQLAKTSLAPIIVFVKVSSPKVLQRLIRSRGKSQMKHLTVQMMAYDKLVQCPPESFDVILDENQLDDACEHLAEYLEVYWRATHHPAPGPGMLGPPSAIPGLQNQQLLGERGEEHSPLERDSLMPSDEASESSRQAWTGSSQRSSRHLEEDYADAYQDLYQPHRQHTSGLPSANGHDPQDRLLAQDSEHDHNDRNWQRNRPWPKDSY

MVIIA (ziconotide) (peptide) gave a half inhibitory concentration of CaV2.2 channel current of 0.0436 µM.
